Measured values published in IntAct's records for PubMed 23230146.

B1: Autophagy-related protein 18 (Saccharomyces cerevisiae), P43601 (parent)
chain: MSDSSPTINFINFNQTGTCISLGTSKGFKIFNCEPFGKFYSEDSGGYAIVEMLFSTSLLALVGIGDQPALSPRRLRIINTKKHSIICEVTFPTSILSVKMNKSRLVVLLQEQIYIYDINTMRLLHTIETNPNPRGLMAMSPSVANSYLVYPSPPKVINSEIKAHATTNNITLSVGGNTETSFKRDQQDAGHSDISDLDQYSSFTKRDDADPTSSNGGNSSIIKNGDVIVFNLETLQPTMVIEAHKGEIAAMAISFDGTLMATASDKGTIIRVFDIETGDKIYQFRRGTYATRIYSISFSEDSQYLAVTGSSKTVHIFKLGHSMSNNKLDSDDSNMEEAAADDSSLDTTSIDALSDEENPTRLAREPYVDASRKTMGRMIRYSSQKLSRRAARTLGQIFPIKVTSLLESSRHFASLKLPVETNSHVMTISSIGSPIDIDTSEYPELFETGNSASTESYHEPVMKMVPIRVVSSDGYLYNFVMDPERGGDCLILSQYSILMD

Variants of: B1
Conditions: with atg2_yeast ATG2, P53855
Chain of atg2_yeast ATG2, P53855 (P53855 whole entry): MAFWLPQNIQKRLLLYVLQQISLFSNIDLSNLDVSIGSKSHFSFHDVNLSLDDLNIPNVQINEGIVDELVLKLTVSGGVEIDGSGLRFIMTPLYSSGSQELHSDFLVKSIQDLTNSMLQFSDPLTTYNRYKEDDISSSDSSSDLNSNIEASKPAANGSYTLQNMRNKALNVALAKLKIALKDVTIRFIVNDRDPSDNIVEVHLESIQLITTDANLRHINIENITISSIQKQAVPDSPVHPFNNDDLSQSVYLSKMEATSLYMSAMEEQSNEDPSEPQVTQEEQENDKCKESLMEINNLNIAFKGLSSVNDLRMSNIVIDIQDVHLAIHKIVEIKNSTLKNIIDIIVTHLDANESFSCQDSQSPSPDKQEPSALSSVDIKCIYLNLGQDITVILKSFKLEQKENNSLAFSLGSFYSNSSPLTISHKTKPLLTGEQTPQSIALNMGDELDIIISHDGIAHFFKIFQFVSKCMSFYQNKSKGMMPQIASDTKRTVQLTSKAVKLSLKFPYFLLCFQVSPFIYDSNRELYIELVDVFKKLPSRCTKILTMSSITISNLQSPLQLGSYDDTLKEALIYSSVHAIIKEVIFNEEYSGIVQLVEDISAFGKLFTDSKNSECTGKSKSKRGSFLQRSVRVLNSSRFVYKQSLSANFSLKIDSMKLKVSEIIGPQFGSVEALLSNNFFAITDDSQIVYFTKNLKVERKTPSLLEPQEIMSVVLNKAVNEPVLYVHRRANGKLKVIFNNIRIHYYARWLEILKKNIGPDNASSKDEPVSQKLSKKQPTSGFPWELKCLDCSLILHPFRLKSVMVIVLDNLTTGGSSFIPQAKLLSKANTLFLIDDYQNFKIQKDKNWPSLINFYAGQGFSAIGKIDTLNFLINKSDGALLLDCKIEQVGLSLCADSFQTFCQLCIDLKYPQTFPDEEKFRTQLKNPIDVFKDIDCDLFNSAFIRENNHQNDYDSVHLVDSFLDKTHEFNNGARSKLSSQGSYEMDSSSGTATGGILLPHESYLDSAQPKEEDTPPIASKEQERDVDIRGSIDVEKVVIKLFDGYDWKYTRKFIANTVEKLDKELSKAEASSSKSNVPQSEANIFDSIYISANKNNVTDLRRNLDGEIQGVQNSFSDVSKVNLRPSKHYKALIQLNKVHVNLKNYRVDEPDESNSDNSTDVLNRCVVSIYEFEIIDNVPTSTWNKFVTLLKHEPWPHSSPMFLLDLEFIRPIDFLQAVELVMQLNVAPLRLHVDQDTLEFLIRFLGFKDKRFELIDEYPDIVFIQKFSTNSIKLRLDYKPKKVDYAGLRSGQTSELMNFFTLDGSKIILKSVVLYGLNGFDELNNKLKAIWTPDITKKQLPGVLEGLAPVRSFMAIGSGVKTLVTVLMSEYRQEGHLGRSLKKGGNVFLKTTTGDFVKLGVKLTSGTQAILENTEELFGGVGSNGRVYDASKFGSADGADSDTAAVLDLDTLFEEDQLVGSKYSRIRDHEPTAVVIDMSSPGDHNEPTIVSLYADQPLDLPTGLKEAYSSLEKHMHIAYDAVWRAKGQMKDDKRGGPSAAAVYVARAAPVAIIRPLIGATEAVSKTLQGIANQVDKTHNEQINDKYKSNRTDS

Row | Variant | effect of a mutation on the interaction
1 | E42A;D43A;S44A;Y47A;T90A;F91A;P92A;T93A;S94A | disrupting interaction strength

Variants of: B1
Conditions: with atg2_yeast ATG2, P53855
Remark: another data set of the same source

Row | Variant | effect of a mutation on the interaction
2 | R285A;R286A | disrupting interaction strength

Variants of: B1
Conditions: with atg2_yeast ATG2, P53855
Remark: another data set of the same source

Row | Variant | effect of a mutation on the interaction
3 | T90A;F91A;P92A;T93A;S94A | decreasing interaction strength
